Holding throughout (settings): both partners purified
Test [1] concerns the target T1, His-nNOS[1–155] (human, UniProt P29475-1 1-155).
T1 construct: Two batches were used
In words: fluorescence polarisation; increasing His-nNOS(1–155) added to 1 μM F-GDLV in 50 mM Tris pH 7.4, 100 mM NaCl, 1 mM EDTA, 0.1% BSA; one-site quadratic fit; triplicates from each of two nNOS batches. A general note: In fluorescence polarisation assays a small probe gives low polarisation when free and higher when bound to something large.

Test [2] deals with T1, His-nNOS[1–155]. The test is described as above. This is another data set of the same source.
For another test, the target named is T2, GST-nNOS[1–155] (human, UniProt P29475-1 1-155).
T2 construct: also called GST-fused nNOS protein
In words: pull-down; solid-phase no-wash binding assay: 5 μl beads bound to 1 μg GST-fused nNOS protein (or GST for background) rotated with His-TAT-NOS1AP peptides for 1 h at 4°C; unbound removed by centrifugation in filter plates, no wash; bound peptide quantified by fluorescent immunoblot; GST background subtracted; 1-site quadratic fit.

Test [3] has as its target T1, His-nNOS[1–155]. In words: fluorescence polarisation; competition FP: 1 μM F-GDLV, 4 μM His-nNOS(1–155), increasing competitor; approximate Kc (dissociation constant of the competitor, affinity for the nNOS PDZ pocket) from the single-site competition formula.

The term Kd denotes a measure of binding affinity in units of concentration. A high value points to weaker binding. One may read the Ki as the dissociation constant of the complex between target and ligand, obtained from inhibition or displacement. A lower Ki goes with tighter binding.

“And” between values parts separate entries of the source, which are not always exact repeats. Equal values may be shown once. Where no end group is shown, it is not given here. fluorescein = fluorescein label at the peptide N-terminus Some results are limits rather than exact numbers.

B1: F-GDLV (fluorescein-RRRRWGDLV) (peptide)
peptide: fluorescein-RRRRWGDLV
notes: also called F-GLDV; source: synthetic peptide, bought: Genic Bio (Shanghai, China)
On to B1, for which the Kd with His-nNOS[1–155] [1] is 10.7 µM; in the test with His-nNOS[1–155] [2], 10.2 µM and 11.2 µM.

B2: His-TAT-NOS1AP[400–503], denatured (domain or fragment, human, UniProt O75052 400-503, looked up)
chain: HSPPLGAGLADFAHPAGSPLGRRDCLVKLECFRFLPPEDTPPPAQGEALLGGLELIKFRESGIASEYESNTDESEERDSWSQEELPRLLNVLQRQELGDGLDDE
notes: also called denatured NOS1AP[400–503]; NOS1AP 400-503 His-TAT fusion, Denatured
Take B2: the affinity with GST-nNOS[1–155], expressed as Kd, was 5.3 µM.

B3: His-TAT-NOS1AP[400–503] E429A, denatured (domain or fragment, human, UniProt O75052 400-503, looked up)
chain: HSPPLGAGLADFAHPAGSPLGRRDCLVKLACFRFLPPEDTPPPAQGEALLGGLELIKFRESGIASEYESNTDESEERDSWSQEELPRLLNVLQRQELGDGLDDE
notes: NOS1AP, human, residues 400-503 with E429A in the ExF motif
B3: binding in the test with GST-nNOS[1–155] was put at a Kd of 99 µM.

B4: NOS1AP[432–506] cleaved from GST (domain or fragment, human, UniProt O75052 432-506, looked up)
chain: RFLPPEDTPPPAQGEALLGGLELIKFRESGIASEYESNTDESEERDSWSQEELPRLLNVLQRQELGDGLDDEIAV
Molecule B4 registered a Ki with His-nNOS[1–155] [3] of over 10 µM.

B5: His-TAT-NOS1AP[400–506], denatured (domain or fragment, human, UniProt O75052 400-506, looked up)
chain: HSPPLGAGLADFAHPAGSPLGRRDCLVKLECFRFLPPEDTPPPAQGEALLGGLELIKFRESGIASEYESNTDESEERDSWSQEELPRLLNVLQRQELGDGLDDEIAV
notes: Same construct as m10, but prepared under denaturing conditions
Molecule B5 yielded a Kd with GST-nNOS[1–155] of 2.4 µM.

B6: NOS1AP[400–506] F431A cleaved from GST (domain or fragment, human, UniProt O75052 400-506, looked up)
chain: HSPPLGAGLADFAHPAGSPLGRRDCLVKLECARFLPPEDTPPPAQGEALLGGLELIKFRESGIASEYESNTDESEERDSWSQEELPRLLNVLQRQELGDGLDDEIAV
In the test with His-nNOS[1–155] [3], B6 came in with a Ki of over 10 µM.

B7: Peptide GDLV (NH2-RRRRWGDLV-COOH) (peptide)
peptide: H-RRRRWGDLV-OH
notes: also called unlabelled GDLV; source: synthetic peptide, bought: Genic Bio (Shanghai, China)
The molecule B7 displayed a Ki with His-nNOS[1–155] [3] of 10.7 µM.

B8: Peptide EIAV (NH2-DSLDDEIAV-COOH) (peptide)
peptide: H-DSLDDEIAV-OH
notes: last 9 amino acids of rat/mouse NOS1AP; also called NOS1AP-9C; DSLDDEIAV (NOS1AP-9C); source: synthetic peptide, synthesized by Xigen AG (Lausanne, Switzerland)
In the test with His-nNOS[1–155] [3], B8 came in with a Ki of over 300 µM.

The values above are taken from paper PMC5350102, “Efficient Binding of the NOS1AP C-Terminus to the nNOS PDZ Pocket Requires the Concerted Action of the PDZ Ligand Motif, the Internal ExF Site and Structural Integrity of an Independent Element” (Frontiers in Molecular Neuroscience, 2017).
